# Residue numbers refer to the chain shown, from its start. “Also recorded” adds a separate entry of the source.
# B1: SEQ ID NO: 8: derivative (minimized) Spinach sequence containing a shortened stem-loop 2 (nucleic acid)
# chain: GACGCGACUGAAUGAAAUGGUGAAGGACGGGUCCAGCUGCUUCGGCAGCUUGUUGAGUAGAGUGUGAGCUCCGUAACUAGUCGCGUC
# modifications: listed as RNA, chemistry not given here
# B2: SEQ ID NO: 9: Spinach derivative with a replacement stem-loop at stem-loop 2 (nucleic acid)
# chain: B1 chain with C37G, U38C, G39A, U41G, U42A, C43A, G44A, C46U, A47G, G48C
# modifications: listed as RNA, chemistry not given here
# B3: 24-2: RNA aptamer clone from SELEX that switches on DFHBI fluorescence (nucleic acid)
# chain: GGGAGACGCAACUGAAUGAAAUGGUGAAGGACGGGUCCAGGUGUGGCUGCUUCGGCAGUGCAGCUUGUUGAGUAGAGUGUGAGCUCCGUAACUAGUCGCGUCAC
# modifications: listed as RNA, chemistry not given here
# notes: RNA aptamer clone from SELEX that switches on DFHBI fluorescence
# B4: guanine sensor: Spinach-based turn-on RNA sensor for guanine (nucleic acid)
# chain: GACGCGACUGAAUGAAAUGGUGAAGGACGGGUCCAGAUAAUCGCGUGGAUAUGGCACGCAAGUUUCUACCGGGCACCGUAAAUGUCCGACUCUUGUUGAGUAGAGUGUGAGCUCCGUAACUAGUCGCGUC
# modifications: chemistry not given here
# Key:
# [1] = test system: HEK293T cells expressing 5S-Spinach; experiment: Live mammalian cell imaging of Spinach-tagged 5S RNA; assay type: cell-based, human
# Method: HEK293 cells cultured on 24-well glass-bottom dishes were transfected with 0.2 μg of pAV-5S construct expressing full length human 5S RNA from its endogenous promoter fused through its 3′ end with either a control sequence (lambda fragment ˜400 nt) or the Spinach aptamer sequence using FuGene 6 (Roche) per manufacturer's instructions. Imaging experiments were performed 48 hours after transfection. Thirty minutes prior to experiment, HEK293 cell media was replaced with imaging media (DMEM with no phenol red or vitamins and supplemented with 25 mM HEPES, 5 mM MgSO4, and 10 μg/ml Hoechst 33342) and 20 μM DFHBI or vehicle were added to the cells to promote RNA-fluorophore complex formation. To induce stress granule formation, cells were treated with 100 mM MgSO4 or 600 mM sucrose for 30 minutes prior to imaging. Live fluorescence images of HEK293 cells were taken with a CoolSnap HQ2 CCD camera through a 100× oil objective mounted on a Nikon TE2000 microscope and analyzed with the NIS-Elements software. A filter cube typically used for fluorescein/EGFP with sputter coated excitation filter 470/40, dichroic mirror 495 (long pass), and emission filter 525/50 (Chroma Technology) was used to detect Spinach.
# [2] = literature value used as reference; cited from earlier work
# [3] = Tolerance of Spinach stem-loop 2 to mutation, assayed by DFHBI fluorescence; assay type: biochemical
# Method: Secondary structure prediction was performed using Mfold online software. Mutated and truncated RNAs were created by ordering single stranded DNA templates (Integrated DNA Technologies) with the desired mutations or truncations and PCR amplifying these sequences to create double stranded DNA templates using primers which included a 5′ T7 promoter sequence. PCR products were then purified with PCR purification columns (Qiagen) and used as templates for in vitro T7 transcription reactions (Epicentre).
# To determine if stem-loop 2 primarily has a structural role in Spinach, mutations were introduced at the stem-loop 2 positions shown in FIG. 11A to test the tolerance of Spinach to mutations at these positions. This was assayed by DFHBI fluorescence. In these experiments, the minimized Spinach structure (SEQ ID NO: 8) in which stem-loop 2 is predicted to sit adjacent to the large internal loop (FIG. 11A). […] To determine if stem-loop 2 can be swapped with a different stem-loop with similar stability without perturbing Spinach-induced DFHBI fluorescence, the UUCG loop sequence was replaced with GAAA and the 4-base pair stem was replaced with a different but still complementary 4-base pair stem (FIG. 11A, SEQ ID NO: 9). […] However, when mismatched bases were inserted in the stem region to prevent the formation of a duplex, DFHBI fluorescence was lost (FIG. 11B).
# [4] = Excitation and emission spectra of the 24-2-DFHBI complex; assay type: physicochemical; conditions: 24-2 bound to DFHBI
# Excerpt: Unless otherwise stated, all chemistry reagents were purchased from Acros Organics and all cell culture reagents were purchased from Invitrogen. Commercially available starting reagents were used without further purification. DFHBI was synthesized as described in PCT Application Publ. No. WO/2010/096584 to Jaffrey and Paige; Paige and Jaffrey, “RNA Mimics of Green Fluorescent Protein,” Science 333(6042):642-646 (2011), each of which is hereby incorporated by reference in its entirety. Flash chromatography was conducted with 200-400 mesh silica gel 60 (EMD) and with ACS or HPLC grade solvents (Fisher). NMR spectra were recorded on a Bruker DMX-500 spectrometer at 500 MHz. Chemical shifts were reported as parts per million (ppm) downfield from an internal tetramethylsilane standard ([…] for ^1H NMR) or from solvent references. […] UPLC was performed at a flow rate of 0.5 ml/min (monitored with a PDA from 210-500 nm) using a Waters C18 column. Absorbance spectra were recorded with a Thermo Scientific NanoDrop 2000 spectrophotometer with cuvette capability. Fluorescence excitation and emission spectra were measured with a Perkin Elmer LS-55 fluorescence spectrometer.
# After eight rounds of SELEX at pH 8.0 using DFHBI-agarose, clones were identified that switched on DFHBI fluorescence. […]
# [5] = Magnesium dependence of 24-2-DFHBI fluorescence; assay type: biochemical
# Excerpt: FIGS. 3A-C illustrate the secondary structures of three RNAs: the original 24-2 structure (3A, SEQ ID NO: 5), a minimized structure 24-2-min (3B, SEQ ID NO: 7), and a first generation derivative of 24-2, designated “Spinach” (3C, SEQ ID NO: 6). RNA structure is shown as predicted by Mfold web-based software (Zuker, “Mfold Web Server for Nucleic Acid Folding and Hybridization Prediction,” Nucl. Acids Res. 31(13): 3406-3415 (2003), which is hereby incorporated by reference in its entirety). In FIG. 3A, bases that could be removed without significant loss in fluorescence are indicated in purple, which includes several bases from the largest loop and largest stem. A-U, G-U and any mismatched base pairs were mutated to G-C base pairs and tested for their effect on 24-2 fluorescence. G-C mutations that reduced 24-2 fluorescence are indicated in red, those which had no effect are indicated by asterisk (*), and those which increased the fluorescence of 24-2 are indicated in green. Base substitutions indicated by an asterisk (*) helped to validate structural predictions because substituting one base pair for another (e.g. A-U for G-C) had negligible effect or increased fluorescence. […] FIG. 3D illustrates the magnesium dependence of 24-2-DFHBI fluorescence. The fluorescence of the 24-2-DFHBI complex was measured at pH 7.4 in the presence of increasing magnesium concentrations. […]
# [6] = Spinach-based RNA sensor fluorescence in response to guanine; assay type: biochemical
molecule,measurement,setting,value
Cc1c(-c2cc(NS(=O)(=O)c3ccccc3Cl)n(C)n2)sc2ccc(Cl)cc12 [ML-60218],effect on 5S-Spinach fluorescence,[1]; Pol III inhibitor treatment,reduces 5S-Spinach fluorescence to baseline levels
Cc1cc2cc3cc(C)c(N)cc3nc2cc1N [acridine yellow],absolute quantum yield of reference fluorophore,[2],0.47
CCC(=C/[C@H](C)C/C=C/C(C)=C/[C@@H](C)C(=O)[C@@H](C)[C@H](O)[C@@H](C)C/C(C)=C/C(=O)O)/C=C/[C@@H]1OC(=O)C=C[C@@H]1C [leptomycin B],effect on 5S-Spinach localization,[1]; after washout of ML-60218,5S-Spinach accumulates in the nucleus
"SEQ ID NO: 16: mismatch stem-loop structure introduced into Spinach; three mismatched nucleotides prevent duplex formation (AUGCUUCGGACG; listed as RNA, chemistry not given here)",DFHBI fluorescence of stem-loop 2 variant relative to Spinach / original stem-loop 2,[3],reduces fluorescence intensity to baseline
lucifer yellow,absolute quantum yield of reference fluorophore,[2],0.21
B1,DFHBI fluorescence of stem-loop 2 variant relative to Spinach / original stem-loop 2,[3],essentially identical fluorescence
B2,DFHBI fluorescence of stem-loop 2 variant relative to Spinach / original stem-loop 2,[3],did not reduce DFHBI fluorescence; also recorded: nearly identical fluorescence intensities
B3,emission peak,[4],501 nm
same,excitation peak,[4],469 nm
same,fraction of maximal fluorescence,[5]; 0.1 mM magnesium,greater than 50%
same,magnesium concentration at maximal fluorescence,[5]; pH 7.4,3 mM
B4,increase in fluorescence in the presence of guanine,"[6]; 0.1 μM RNA, 10 μM DFHBI, 100 μM Gua, versus no guanine",32 fold
same,EC50,"[6]; dose-response, 10 μM fluorophore, read-out: half-maximal fluorescence (EC50), guanine",1500 nM

# — patent publication US10444224B2, “Method for RNA detection and quantification” (Cornell University, priority 2011, dated 2019)
